Test results reported in patent publication US7527793 (RUSH UNIVERSITY MEDICAL CENTER, dated 2009).

B1: CD33 peptide TIQLNVTYV (residues 226-234, SEQ ID NO: 9) (peptide)
peptide: TIQLNVTYV
notes: Native CD33 nonamer, extracellular domain; also called CD33226-234

Biological target: T1, HLA-A2.1 on T2 cells (human)
T1 construct: Peptide-receptive HLA-A2.1 on T2 cells; also called HLA-A2.1 MHC class I molecules
Test: peptide binding to HLA-A2.1+ T2 cells, complex stability; Brefeldin A 2 hr (T2 alone 200)

Compared with YIISGDSPV (Modified CD33 peptide) [YIISGDSPV (SEQ ID NO: 3)], ALISGDSPV (Modified CD33 peptide) [ALISGDSPV (SEQ ID NO: 16)] is higher in “binding score (HLA-A2.1 on T2 cells)” value: 588 for the first, 882 for the second.

First: YIIIGDSPV (Modified CD33 peptide) [YIIIGDSPV (SEQ ID NO: 11)]
Second: YIILGDSPV (Modified CD33 peptide) [YIILGDSPV (SEQ ID NO: 12)]
The “binding score (HLA-A2.1 on T2 cells)” value of the first is lower: 257 for the first, 315 for the second.

First: YIISGDLPV (Modified CD33 peptide) [YIISGDLPV (SEQ ID NO: 13)]
Second: YIISGDSPL (Modified CD33 peptide) [YIISGDSPL (SEQ ID NO: 15)]
The “binding score (HLA-A2.1 on T2 cells)” value of the first is higher: 524 for the first, 334 for the second.

Compared with YIISGDSWV (Modified CD33 peptide) [YIISGDSWV (SEQ ID NO: 14)], YIISGISPV (Modified CD33 peptide) [YIISGISPV (SEQ ID NO: 6)] is higher in “binding score (HLA-A2.1 on T2 cells)” value: 247 for the first, 929 for the second.

First: YLISGDSPV (Modified CD33 peptide) [YLISGDSPV (SEQ ID NO: 7)]
Second: B1
The “binding score (HLA-A2.1 on T2 cells)” value of the first is higher: 810 for the first, 173 for the second.

Biological target: T1, HLA-A2.1 on T2 cells
Test: peptide binding to HLA-A2.1+ T2 cells, complex stability; Brefeldin A 4 hr (T2 alone 187)

First: YIISGDSPV (Modified CD33 peptide) [YIISGDSPV (SEQ ID NO: 3)]
Second: ALISGDSPV (Modified CD33 peptide) [ALISGDSPV (SEQ ID NO: 16)]
The “binding score (HLA-A2.1 on T2 cells)” value of the first is lower: 380 for the first, 692 for the second.

First: YIGSGDSPV (Modified CD33 peptide) [YIGSGDSPV (SEQ ID NO: 10)]
Second: YIIIGDSPV (Modified CD33 peptide) [YIIIGDSPV (SEQ ID NO: 11)]
The “binding score (HLA-A2.1 on T2 cells)” value of the first is lower: 167 for the first, 208 for the second.

Going from YIILGDSPV (Modified CD33 peptide) [YIILGDSPV (SEQ ID NO: 12)] to YIISGDLPV (Modified CD33 peptide) [YIISGDLPV (SEQ ID NO: 13)], the “binding score (HLA-A2.1 on T2 cells)” value rises from 205 to 307.

Going from YIISGDSPL (Modified CD33 peptide) [YIISGDSPL (SEQ ID NO: 15)] to YIISGDSWV (Modified CD33 peptide) [YIISGDSWV (SEQ ID NO: 14)], the “binding score (HLA-A2.1 on T2 cells)” value falls from 217 to 208.

First: YIISGISPV (Modified CD33 peptide) [YIISGISPV (SEQ ID NO: 6)]
Second: YLISGDSPV (Modified CD33 peptide) [YLISGDSPV (SEQ ID NO: 7)]
The “binding score (HLA-A2.1 on T2 cells)” value of the first is higher: 839 for the first, 745 for the second.

B1 was tested, and the “binding score (HLA-A2.1 on T2 cells)” value was 180.

Biological target: T1, HLA-A2.1 on T2 cells
Test: T2 peptide binding assay with beta2-microglobulin, anti-HLA-A2.1 staining, flow cytometry; index against T2 + beta2-microglobulin only (1.0)
Method: T2 cells were washed and resuspended in serum-free AIM-V™ (Gibco-Life Technologies, Rockville, Md.) at a final concentration of 1 ×10^6 cells/ml and transferred into a 24-well tissue culture plate. […] After incubation, cells were washed once with PBS containing 3% FCS, and stained with mouse anti-HLA-A2.1 monoclonal antibody for 15 minutes at 4° C. After washing, the cells were incubated with goat anti-mouse IgG (F(ab')_2)-FITC for 15 minutes at 4° C. The cells were washed once, and fluorescence was measured on a FACSort™ flow cytometer (Becton Dickson, San Jose, Calif.). The fluorescence index was calculated as follows: (mean channel fluorescence of sample–mean channel fluorescence of unstained control cells)/mean channel fluorescence of unstained control cells.

Going from B1 to ALLALCLCL (also called CD33269-277) [CD33 peptide ALLALCLCL (residues 269-277, SEQ ID NO: 8)], the “Fluorescence Index” value rises from 0.99 to 1.04.

Biological target: T1, HLA-A2.1 on T2 cells
Test: peptide binding to HLA-A2.1+ T2 cells, complex stability; Brefeldin A 6 hr (T2 alone 157)

Compared with YIISGDSPV (Modified CD33 peptide) [YIISGDSPV (SEQ ID NO: 3)], ALISGDSPV (Modified CD33 peptide) [ALISGDSPV (SEQ ID NO: 16)] is higher in “binding score (HLA-A2.1 on T2 cells)” value: 216 for the first, 609 for the second.

Compared with YIGSGDSPV (Modified CD33 peptide) [YIGSGDSPV (SEQ ID NO: 10)], YIIIGDSPV (Modified CD33 peptide) [YIIIGDSPV (SEQ ID NO: 11)] is higher in “binding score (HLA-A2.1 on T2 cells)” value: 151 for the first, 172 for the second.

Going from YIILGDSPV (Modified CD33 peptide) [YIILGDSPV (SEQ ID NO: 12)] to YIISGDLPV (Modified CD33 peptide) [YIISGDLPV (SEQ ID NO: 13)], the “binding score (HLA-A2.1 on T2 cells)” value rises from 173 to 203.

Going from YIISGDSPL (Modified CD33 peptide) [YIISGDSPL (SEQ ID NO: 15)] to YIISGDSWV (Modified CD33 peptide) [YIISGDSWV (SEQ ID NO: 14)], the “binding score (HLA-A2.1 on T2 cells)” value rises from 168 to 173.

Going from YIISGISPV (Modified CD33 peptide) [YIISGISPV (SEQ ID NO: 6)] to YLISGDSPV (Modified CD33 peptide) [YLISGDSPV (SEQ ID NO: 7)], the “binding score (HLA-A2.1 on T2 cells)” value falls from 680 to 594.

B1 was tested, and the “binding score (HLA-A2.1 on T2 cells)” value was 159.

Biological target: T1, HLA-A2.1 on T2 cells
Test: peptide binding to HLA-A2.1+ T2 cells, complex stability; Brefeldin A 0 hr (T2 alone 226)

First: YIISGDSPV (Modified CD33 peptide) [YIISGDSPV (SEQ ID NO: 3)]
Second: ALISGDSPV (Modified CD33 peptide) [ALISGDSPV (SEQ ID NO: 16)]
The “binding score (HLA-A2.1 on T2 cells)” value of the first is lower: 641 for the first, 677 for the second.

Compared with YIGSGDSPV (Modified CD33 peptide) [YIGSGDSPV (SEQ ID NO: 10)], YIIIGDSPV (Modified CD33 peptide) [YIIIGDSPV (SEQ ID NO: 11)] is lower in “binding score (HLA-A2.1 on T2 cells)” value: 687 for the first, 301 for the second.

First: YIILGDSPV (Modified CD33 peptide) [YIILGDSPV (SEQ ID NO: 12)]
Second: YIISGDLPV (Modified CD33 peptide) [YIISGDLPV (SEQ ID NO: 13)]
The “binding score (HLA-A2.1 on T2 cells)” value of the first is lower: 488 for the first, 724 for the second.

Compared with YIISGDSPL (Modified CD33 peptide) [YIISGDSPL (SEQ ID NO: 15)], YIISGDSWV (Modified CD33 peptide) [YIISGDSWV (SEQ ID NO: 14)] is lower in “binding score (HLA-A2.1 on T2 cells)” value: 426 for the first, 247 for the second.

First: YIISGISPV (Modified CD33 peptide) [YIISGISPV (SEQ ID NO: 6)]
Second: YLISGDSPV (Modified CD33 peptide) [YLISGDSPV (SEQ ID NO: 7)]
The “binding score (HLA-A2.1 on T2 cells)” value of the first is higher: 840 for the first, 728 for the second.

With B1 the “binding score (HLA-A2.1 on T2 cells)” value was 218.

Biological target: T1, HLA-A2.1 on T2 cells
Test: peptide binding to HLA-A2.1+ T2 cells, complex stability; Brefeldin A overnight (T2 alone 255)

First: YIISGDSPV (Modified CD33 peptide) [YIISGDSPV (SEQ ID NO: 3)]
Second: ALISGDSPV (Modified CD33 peptide) [ALISGDSPV (SEQ ID NO: 16)]
The “binding score (HLA-A2.1 on T2 cells)” value of the first is lower: 248 for the first, 366 for the second.

First: YIIIGDSPV (Modified CD33 peptide) [YIIIGDSPV (SEQ ID NO: 11)]
Second: YIILGDSPV (Modified CD33 peptide) [YIILGDSPV (SEQ ID NO: 12)]
The “binding score (HLA-A2.1 on T2 cells)” value of the first is higher: 325 for the first, 323 for the second.

Compared with YIISGDLPV (Modified CD33 peptide) [YIISGDLPV (SEQ ID NO: 13)], YIISGDSPL (Modified CD33 peptide) [YIISGDSPL (SEQ ID NO: 15)] is lower in “binding score (HLA-A2.1 on T2 cells)” value: 296 for the first, 157 for the second.

First: YIISGDSWV (Modified CD33 peptide) [YIISGDSWV (SEQ ID NO: 14)]
Second: YIISGISPV (Modified CD33 peptide) [YIISGISPV (SEQ ID NO: 6)]
The “binding score (HLA-A2.1 on T2 cells)” value of the first is lower: 298 for the first, 593 for the second.

Compared with YLISGDSPV (Modified CD33 peptide) [YLISGDSPV (SEQ ID NO: 7)], B1 is lower in “binding score (HLA-A2.1 on T2 cells)” value: 479 for the first, 404 for the second.

Biological target: T1, HLA-A2.1 on T2 cells
Test: peptide binding to HLA-A2.1+ T2 cells, complex stability; no Brefeldin A (T2 alone 215)

First: YIISGDSPV (Modified CD33 peptide) [YIISGDSPV (SEQ ID NO: 3)]
Second: ALISGDSPV (Modified CD33 peptide) [ALISGDSPV (SEQ ID NO: 16)]
The “binding score (HLA-A2.1 on T2 cells)” value of the first is lower: 547 for the first, 603 for the second.

Compared with YIGSGDSPV (Modified CD33 peptide) [YIGSGDSPV (SEQ ID NO: 10)], YIIIGDSPV (Modified CD33 peptide) [YIIIGDSPV (SEQ ID NO: 11)] is lower in “binding score (HLA-A2.1 on T2 cells)” value: 515 for the first, 263 for the second.

First: YIILGDSPV (Modified CD33 peptide) [YIILGDSPV (SEQ ID NO: 12)]
Second: YIISGDLPV (Modified CD33 peptide) [YIISGDLPV (SEQ ID NO: 13)]
The “binding score (HLA-A2.1 on T2 cells)” value of the first is lower: 465 for the first, 619 for the second.

Going from YIISGDSPL (Modified CD33 peptide) [YIISGDSPL (SEQ ID NO: 15)] to YIISGDSWV (Modified CD33 peptide) [YIISGDSWV (SEQ ID NO: 14)], the “binding score (HLA-A2.1 on T2 cells)” value falls from 428 to 209.

Compared with YIISGISPV (Modified CD33 peptide) [YIISGISPV (SEQ ID NO: 6)], YLISGDSPV (Modified CD33 peptide) [YLISGDSPV (SEQ ID NO: 7)] is higher in “binding score (HLA-A2.1 on T2 cells)” value: 591 for the first, 701 for the second.

B1 was tested, and the “binding score (HLA-A2.1 on T2 cells)” value was 175.
